The test system of data set [1] is Nc1ncnc2c1ncn2[C@@H]1O[C@H](COP(=O)(O)OP(=O)(O)OP(=O)(O)O)[C@@H](O)[C@H]1O. Briefly: purified protein, by the assay type. The note with it: pH 7.5.
Experimental: Hsp70 proteins at final concentration of 0.4 μM were each incubated for 5 min in buffer HKMD (10 mM HEPES-KOH pH 7.5, 100 mM KCl, 2 mM MgCl2 and 0.5 mM DTT). The reaction was initiated by the addition of ATP at various concentrations (0–5 mM) and samples were analyzed every 30 min for 4 h.
Standard deviations shown represent three independent assays made using separate protein purification batches.
validated by one way ANOVA test (p< 0.05 *) and (p<0.01**).
In data set [2] the target is KPf, chimeric protein of the ATPase domain of DnaK and the substrate binding domain of PfHsp70-1 (Escherichia coli | Plasmodium falciparum). The data set is described as follows: SPR. (In general: In SPR one partner is held on a chip, and binding of the other changes the refractive index at the surface.)

“And” between values parts separate entries of the source, which are not always exact repeats. Equal entries are not always repeated.

One may read the Km as the substrate concentration at which the rate is half of its maximum. Broadly, the kon is the rate constant with which the complex forms. Low values mean slow association, high ones fast association.

Turning to PfHsp70-1 (Plasmodium falciparum 3D7), in data set [1], the Michaelis-Menten constant (Km) amounted to 370.8 µM.

As to “KPf, chimeric protein of the ATPase domain of DnaK and the substrate binding domain of PfHsp70-1”, the kon in data set [2] was 154 M⁻¹ s⁻¹ and 132 M⁻¹ s⁻¹ and 142 M⁻¹ s⁻¹.

Source of the values: PMC7356358.
